Results published in paper PMC11108154.
Several values for one entry are separate records, joined by “and”; a condition that tells them apart may be missing. Equal values may be shown once.

Legend:
[1] = target: AMP-glucagon (generic synthetic glucagon for injection, Amphastar Pharmaceuticals) (UniProt P01275); test: SEC; SEC-HPLC of expired lots (end of shelf life); Phenomenex Yarra 3 um SEC-2000, isocratic 55% 0.1% TFA / 45% acetonitrile, 1.000 mL/min, ambient temperature, UV 214 nm; reconstituted with the included diluent and tested immediately; monomer and dimer told by a calibration curve
[2] = target: ELI-glucagon (Eli Lilly's Glucagon, recombinant, reference listed drug) (UniProt P01275); test: SEC; SEC-HPLC of recently released lots; Phenomenex Yarra 3 um SEC-2000, isocratic 55% 0.1% TFA / 45% acetonitrile, 1.000 mL/min, ambient temperature, UV 214 nm; reconstituted with the included diluent and tested immediately; monomer and dimer told by a calibration curve
[3] = target: ELI-glucagon (Eli Lilly's Glucagon, recombinant, reference listed drug) (UniProt P01275); test: SEC; SEC-HPLC of expired lots (end of shelf life); Phenomenex Yarra 3 um SEC-2000, isocratic 55% 0.1% TFA / 45% acetonitrile, 1.000 mL/min, ambient temperature, UV 214 nm; reconstituted with the included diluent and tested immediately; monomer and dimer told by a calibration curve

| Substance | % Dimer by SEC-HPLC [1] | stoichiometry N [1] | % Dimer by SEC-HPLC [2] | stoichiometry N [2] | % Dimer by SEC-HPLC [3] | stoichiometry N [3] |
| --- | --- | --- | --- | --- | --- | --- |
| AMP-glucagon (generic synthetic glucagon for injection, Amphastar Pharmaceuticals) (from UniProt P01275 53-81) (peptide) | 0.062% and 0.08% and 0.115% | 2 | – | – | – | – |
| ELI-glucagon (Eli Lilly's Glucagon, recombinant, reference listed drug) (from UniProt P01275 53-81) (peptide) | – | – | 0.04% and 0.042% and 0.038% | 2 | 0.133% and 0.097% and 0.144% | 2 |
